These results are taken from PMC9971246, “The activation mechanism and antibody binding mode for orphan GPR20” (Cell Discovery, 2023).

For this experiment, the target named is T1, N-terminal BRIL-fused wild-type human GPR20 (human, UniProt Q99678).
T1 construct: human GPR20, wild type, UniProt Q99678; codon-optimized gene in pFastBac1; Construct order: haemagglutinin signal peptide, Flag tag, BRIL, GPR20, HRV 3C protease site, 10x His; No cleavage with HRV 3C is described; BRIL is written as a carrier under tags, not as a part; also called WT GPR20; ligand-free GPR20; source: Trichuplusia ni Hi5 insect cells (baculovirus), co-expressed with DNGαi and …
Put plainly: cryo-EM structure; GPR20-Gi-Fab046 complex, pair of Fab046 and GPR20; TALON eluate (GPR20-Gi complex) mixed with purified Fab046 1:1.5 for 6 h, SEC in 20 mM HEPES pH 7.5, 100 mM NaCl, LMNG/GDN/CHS, 100 μM TCEP; 3.22 Å. The note with it: both partners purified.

T1 sequence (Q99678 whole entry, the tested form may be a part): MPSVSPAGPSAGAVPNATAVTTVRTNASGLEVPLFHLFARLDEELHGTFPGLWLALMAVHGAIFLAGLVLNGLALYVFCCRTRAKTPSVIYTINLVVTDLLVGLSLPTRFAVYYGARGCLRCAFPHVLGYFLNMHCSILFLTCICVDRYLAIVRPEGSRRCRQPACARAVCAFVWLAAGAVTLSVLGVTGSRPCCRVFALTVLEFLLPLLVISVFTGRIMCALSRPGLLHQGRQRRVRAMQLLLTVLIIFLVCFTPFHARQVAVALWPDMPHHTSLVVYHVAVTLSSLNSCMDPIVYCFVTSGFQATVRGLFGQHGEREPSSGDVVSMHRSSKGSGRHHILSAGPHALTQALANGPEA

B1: Fab046, Fab fragment of the anti-GPR20 antibody Ab046 (Fab, V domains shown)
VH: QVQLQQSGAELAKPGSSVKISCKASGYTFTSYYISWIKQTTGQGLKYIGFINPGSGHTNYNEKFKGKATLTVDKSSSTAFMQLSSLTPDDSAIYYCARGAGGFLRIITKFDYWGQGVMVTVSS
VL: DTVLTQSPALAVSLGQRVTISCRASKSVSTYIHWYQQRSGQQPKLLIYSASNLESGVPSRFSGSGSGTDFTLTIDPVEPDDIANYYCQQINELPYTFGAGTKLELK
notes: modelled in the deposited structures PDB 8HS2 (VH + CH1) and PDB 8HSC (VH); modelled in the deposited structures PDB 8HS2 (intact light chain) and PDB 8HSC (VL); also called IgG046; source: Trichuplusia ni Hi5 insect cells (baculovirus, pFastBacDual), from the supernatant, purified (Ni-NTA, SEC)
For the molecule B1, the binding result is recorded as “binds”.
